According to publication PMC5177890, “Controlled Orientation of Active Sites in a Nanostructured Multienzyme Complex” (Scientific Reports, 2016):

Target: the molecule itself
Experiment: SEC; size exclusion chromatography of the enzyme in solution (Supplementary Fig. 1); conditions not told in the main text

B1: Formate dehydrogenase from Thiobacillus sp. KNK65MA, wild type (enzyme)
chain: MAKILCVLYDDPVDGYPKTYARDDLPKIDHYPGGQTLPTPKAIDFTPGQLLGSVSGELGLRKYLEANGHTFVVTSDKDGPDSVFEKELVDADVVISQPFWPAYLTPERIAKAKNLKLALTAGIGSDHVDLQSAIDRGITVAEVTYCNSISVAEHVVMMILGLVRNYIPSHDWARKGGWNIADCVEHSYDLEGMTVGSVAAGRIGLAVLRRLAPFDVKLHYTDRHRLPEAVEKELGLVWHDTREDMYPHCDVVTLNVPLHPETEHMINDETLKLFKRGAYIVNTARGKLADRDAIVRAIESGQLAGYAGDVWFPQPAPKDHPWRTMKWEGMTPHISGTSLSAQARYAAGTREILECFFEGRPIRDEYLIVQGGALAGTGAHSYSKGNATGGSEEAAKFKKAG
notes: NAD-dependent formate dehydrogenase of Thiobacillus sp; KNK65MA; fdh gene PCR amplified from pET-23b(+)-TsFDH and subcloned into pQE80; 45 kDa for a single subunit; also called FDH; FDH-WT; source: E. coli TOP10, purified (Ni-NTA agarose)
stoichiometry N: 2
